For two molecules, cleavage rate results are on record in patent US20050048527, “Endonuclease-substrate complexes” (Third Wave Technologies, Inc., published 2005).

In series [1] the target is T1, Pfu Y33A FEN1 (Pyrococcus furiosus, UniProt O93634 SEQ:1-340, Y33A).
T1 sequence: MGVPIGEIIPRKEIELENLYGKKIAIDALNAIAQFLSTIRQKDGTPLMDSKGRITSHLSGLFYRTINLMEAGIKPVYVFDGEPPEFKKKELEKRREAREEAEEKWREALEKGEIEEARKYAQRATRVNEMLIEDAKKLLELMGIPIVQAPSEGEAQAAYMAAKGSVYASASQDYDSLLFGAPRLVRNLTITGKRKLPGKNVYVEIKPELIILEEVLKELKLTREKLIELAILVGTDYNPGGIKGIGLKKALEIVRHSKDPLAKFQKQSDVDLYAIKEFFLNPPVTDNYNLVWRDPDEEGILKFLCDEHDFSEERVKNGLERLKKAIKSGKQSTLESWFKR
Put plainly: cleavage_in_vitro; rate vs Pfu FEN1. As to conditions: label: 5'-biotin target; 5'-TET probe; hairpin target-INVADER with overlapping probe flap. The procedure: (§1) For the evaluation of chimeric enzymes, standard tests were performed to measure the performance and specificity of the enzymes. […] 10 μl reactions are run at 59 C for between 5 to 60 minutes depending on the enzyme. Reactions are stopped by the addition of 10 μl of 95% formamide, 0.02% methyl violet. 1 μl of the mixture is run on a denaturing 20% acrylamide gel and electrophoresed for 15 minutes or until good separation is achieved between cleaved and uncleaved probe. The gels are scanned using an FMBIO fluorescent gel scanner and the bands are quantified with FMBIOAnalysis software. Cleavage rates are determined from the percent probe cleaved. Cleavage rate for the INVADER substrate is defined as the number of probe molecules cleaved per target molecule per minute. In Table 5, below, the cleavage rates for the mutant enzymes are compared to the cleavage rates for unmodified Pfu FEN1 enzyme on the INVADER assay and X-structure substrates.
(§2) The X-structure substrate is used to determine the amount of background cleavage an enzyme will carry out in an INVADER reaction. It mimics the structure created by uncut primary probe and secondary FRET cassette in the INVADER squared reaction. […] 10 μl reactions are run at 59 C for between 3 to 30 minutes depending on the enzyme. Reactions are stopped by the addition of 10 μl of 95% formamide, 0.02% methyl violet. 1 μl of the mixture is run on a denaturing 20% acrylamide gel and electophoresed for 15 minutes or until good separation is achieved between cleaved and uncleaved probe. The gels are scanned using an FMBIO fluorescent gel scanner and the bands are quantified with FMBIOAnalysis software. Cleavage rates are determined from the percent probe cleaved.

The target in series [2] is T2, Pho FEN1 (Pyrococcus horikoshii, UniProt O50123 SEQ:1-343).
T2 sequence: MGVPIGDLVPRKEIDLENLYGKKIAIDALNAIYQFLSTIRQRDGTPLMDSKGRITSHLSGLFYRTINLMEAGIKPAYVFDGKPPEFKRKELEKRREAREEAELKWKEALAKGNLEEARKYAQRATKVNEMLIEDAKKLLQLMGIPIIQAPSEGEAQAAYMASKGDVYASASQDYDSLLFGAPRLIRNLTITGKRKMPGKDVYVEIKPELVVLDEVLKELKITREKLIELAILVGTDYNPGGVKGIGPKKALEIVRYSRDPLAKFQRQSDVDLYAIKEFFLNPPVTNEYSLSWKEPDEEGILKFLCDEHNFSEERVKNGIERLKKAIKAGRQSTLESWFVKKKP
Put plainly: cleavage_in_vitro; rate vs Pfu FEN1. As to conditions: label: 5'-TET; X-structure. The procedure:
as §1, §2

B1: INVADER substrate 594-12-1/203-91-1 (structured_DNA)
DNA 1: TTTTTCACGGCAGTTGGTGCGCCTCGGAACGAGGCGCACA
DNA 2: TTTTCAACTGCCGTGA
B1 yielded a cleavage rate in series [1] of 0.05.

B2: X-structure 203-81-2/203-91-2 (structured_DNA)
DNA 1: TTTTCAACTGCTTAGAGAATCTAAGCAGTTGGTGCGCCTCGTTAA
DNA 2: AACGAGGCGCACATT
modifications: 3'-NH2 on first strand
Consider B2, for which, in series [2], the cleavage rate was 120.
